Assay results: patent US20060234906A1, “Structure of a complex of retinoblastoma protein bound to e2f, and uses thereof” (priority 2002, published 2006)

Experiments:
RbABC = target: T1, RbABC (Homo sapiens, UniProt P06400); test: Isothermal titration calorimetry of E2F constructs binding to RbABC; conditions: ITC
T1 construct: His6-RbABC (RESIDUES 380-929); made in house; host or cells: E. coli
T1 sequence (P06400 380-928 limits assumed): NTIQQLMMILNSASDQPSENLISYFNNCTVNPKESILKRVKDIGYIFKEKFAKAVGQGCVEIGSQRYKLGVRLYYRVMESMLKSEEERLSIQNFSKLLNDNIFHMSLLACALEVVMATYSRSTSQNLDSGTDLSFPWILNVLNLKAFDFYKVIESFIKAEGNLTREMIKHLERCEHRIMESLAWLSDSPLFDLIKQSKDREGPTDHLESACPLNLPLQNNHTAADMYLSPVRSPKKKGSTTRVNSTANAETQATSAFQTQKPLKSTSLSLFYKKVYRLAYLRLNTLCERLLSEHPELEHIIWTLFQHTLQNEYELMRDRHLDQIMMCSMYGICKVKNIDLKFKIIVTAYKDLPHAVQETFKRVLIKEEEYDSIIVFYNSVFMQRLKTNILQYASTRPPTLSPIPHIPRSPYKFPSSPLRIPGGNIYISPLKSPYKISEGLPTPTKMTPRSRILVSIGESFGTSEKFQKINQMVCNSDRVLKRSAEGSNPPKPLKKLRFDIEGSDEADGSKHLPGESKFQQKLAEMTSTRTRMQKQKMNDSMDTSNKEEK
Protocol: (B) Summary of dissociation constants obtained by ITC measurements. The quoted errors are those produced by fitting the data to a two-state model. For the interaction of E2F(243-437) to RbAB and RbABC the affinities are too high to measure reliably and we have therefore quoted the upper limits of the dissociation constants.
(§1) Binding of the various E2F constructs to RbAB and RbABC was measured by isothermal titration calorimetry using a MicroCal Omega VP-ITC machine (MicroCal Inc., Northampton, USA). The E2F constructs at a concentration between 100-150 μM were titrated into 12-15 μM Rb at a temperature of 22° C. Proteins were dialysed against 50 mM Tris pH 7.6, 100 mM NaCl and 1 mM TCEP. After subtraction of the dilution heats, calorimetric data was analysed using the evaluation software MicroCal Origin v5.0 (MicroCal Software Inc.). For all of the titrations, the stoichiometry of ligand binding to Rb was very close to 1.0. For E2F(243-437) binding to Rb, the binding affinity and the heat change associated with binding were such that we could only establish that binding was tighter than 10 nM.

RbAB and RbABC = target: T2, RbAB and RbABC (Homo sapiens, UniProt P06400); test: Competition experiment (Ni column, SDS-PAGE): partition of E2F(243-437) between RbAB and RbABC; type: binding; conditions: His6-RbABC against non-tagged RbAB, proteins mixed at 40 μM
T2 construct: non-tagged RbAB (residues 372-787); His6-RbABC (RESIDUES 380-929); made in house; host or cells: E. coli
T2 sequence (P06400 372-787 limits assumed): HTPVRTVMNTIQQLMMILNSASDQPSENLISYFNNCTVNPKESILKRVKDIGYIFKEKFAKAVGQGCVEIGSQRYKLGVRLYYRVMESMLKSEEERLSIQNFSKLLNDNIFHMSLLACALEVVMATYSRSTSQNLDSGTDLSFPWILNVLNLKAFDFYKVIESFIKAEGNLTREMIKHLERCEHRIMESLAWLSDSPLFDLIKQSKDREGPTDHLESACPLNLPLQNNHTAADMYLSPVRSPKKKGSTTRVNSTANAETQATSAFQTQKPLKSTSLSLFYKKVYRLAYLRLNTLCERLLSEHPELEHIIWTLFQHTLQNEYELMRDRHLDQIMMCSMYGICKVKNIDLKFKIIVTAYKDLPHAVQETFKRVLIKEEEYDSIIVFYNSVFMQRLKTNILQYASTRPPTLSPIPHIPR
T2 sequence (P06400 380-928 limits assumed): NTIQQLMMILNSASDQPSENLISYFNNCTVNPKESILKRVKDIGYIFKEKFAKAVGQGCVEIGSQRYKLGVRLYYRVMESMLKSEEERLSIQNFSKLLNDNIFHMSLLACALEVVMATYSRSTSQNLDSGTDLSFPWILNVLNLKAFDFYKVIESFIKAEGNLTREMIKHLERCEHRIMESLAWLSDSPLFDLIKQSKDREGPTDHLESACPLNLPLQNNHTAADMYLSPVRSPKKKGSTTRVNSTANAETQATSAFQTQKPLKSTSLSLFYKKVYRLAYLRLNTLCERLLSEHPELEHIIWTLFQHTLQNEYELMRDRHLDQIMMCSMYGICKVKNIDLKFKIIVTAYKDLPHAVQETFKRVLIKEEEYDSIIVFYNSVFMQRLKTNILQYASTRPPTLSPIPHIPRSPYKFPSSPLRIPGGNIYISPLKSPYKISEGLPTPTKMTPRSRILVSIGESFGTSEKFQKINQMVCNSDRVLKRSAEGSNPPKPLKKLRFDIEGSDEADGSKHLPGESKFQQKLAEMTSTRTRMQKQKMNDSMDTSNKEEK
Protocol: as §1
The proteins used in these experiments were His6-RbABC (RESIDUES 380-929); MW 66.07 kDa, non-tagged RbAB (residues 372-787); MW 48.67 KDa, are His6-RbAB (residues 376-792); MW 49.86 KDa, E2F(243-437); MW 21.45 KDa HPV E7 (residues 17-98); MW 9.38 KDa and E2F(409-426); MW 2.12 KDa. Protein concentrations were carefully determined by u.v. spectroscopy and confirmed by ITC titrations. The small acidic E2F proteins stain much weaker than Rb with Coomassie on SDS-PAGE. For all gel lanes contained a final RbAB concentration of ca. 7 μM. […]

binds stronger than either of the two shorter E2F fragments (RbABC): at least 16 fold
partitioning between the two pRb species (RbAB and RbABC): approximately equal partitioning
B1: E2F(243-437): Recombinant human E2F1(243-437) expressed in E. coli (protein, UniProt Q01094 243-437, looked up, fragment)
chain: LAYVTCQDLRSIADPAEQMVMVIKAPPETQLQAVDSSENFQISLKSKQGPIDVFLCPEETVGGISPGKTPSQEVTSEEENRATDSATIVSPPPSSPPSSLTTDPSQSLLSLEQEPLLSRMGSLRAPVDEDRLSPLVAADSLLEHVREDFSGLLPEEFISLSPPHEALDYHFGLEEGEGIRDLFDCDFGDLTPLDF
